B1: E3: humanized, affinity matured anti-NGF antagonist antibody; variable regions SEQ ID NO:1 and 2; human IgG2a (A330P331 to S330S331), kappa (antibody, V domains shown)
VH: QVQLQESGPGLVKPSETLSLTCTVSGFSLIGYDLNWIRQPPGKGLEWIGIIWGDGTTDYNSAVKSRVTISKDTSKNQFSLKLSSVTAADTAVYYCARGGYWYATSYYFDYWGQGTLVTVS
VL: DIQMTQSPSSLSASVGDRVTITCRASQSISNNLNWYQQKPGKAPKLLIYYTSRFHSGVPSRFSGSGSGTDFTFTISSLQPEDIATYYCQQEHTLPYTFGQGTKLEIKRT
modifications: human IgG2a constant (A330S/P331S) and kappa constant missing

What was measured:
[1] = test system: complete Freund's adjuvant (CFA)-induced chronic arthritis; test: CFA arthritis rats, arthritis index (inflammation score); type: in vivo, rat; details: for change of arthritis index compared to vehicle-treated arthritic group: E3 1 mg/kg or 911 10 mg/kg i.v. D14+D19, indomethacin 3 mg/kg/day p.o.; for arthritis index (score): arthritic rats
Experimental: Five groups of 10 animals (5-weeks old male Lewis rats-LEWIS Lew/Ico, from Charles River Laboratories—Belgium) each were included in this study: Group 1: non arthritic rats/saline (vehicle), i.v. bolus, n=10; Group 2: arthritic rats/saline (vehicle), i.v. bolus, n=10; Group 3: arthritic rats/Indomethacin 3 mg/kg, p.o daily over 10 days, n=10; […]; Group 5: arthritic rats/911, 10 mg/kg, i.v. bolus, n=10. The doses were expressed in terms of free active substance (mg/kg). E3 and 911 were extemporaneously prepared in saline from the stock solution to the desired concentration. […]. All diluted solutions (before i.v. injection) were sterilized using a sterile filter unit of 0.20.μm. pH and osmolarity values of diluted solutions were measured before each i.v. injection. Before the first i.v., osmolarity (mosm/L) for saline, E3, and 911 were 278, 269, and 308 respectively; pH for saline, E3, and 911 were 5.93, 6.76, 6.71 respectively. Before the second i.v., osmolarity (mosm/L) for saline, E3, and 911 were 280, 270, and 309 respectively; pH for saline, E3, and 911 were 5.86, 6.72, and 6.59 respectively.
E3 or 911 or saline were administered by i.v. bolus injection on Day 14 and Day 19 after arthritis induction in a coded and random order with a volume of 5 mL/kg. The non arthritic group was given by i.v. bolus injection of saline on Day 14 and Day 19 with a volume of 5 mL/kg. Indomethacin was extemporaneously prepared in 1% methylcellulose. Indomethacin was administered by oral route (p.o.) once daily over 10 days from Day 14 to Day 23 after arthritis induction in a coded and random order with a volume of 10 mL/kg.
Arthritis index was evaluated using an inflammation score for each hind and forepaw (arthritic rats): Score 0: normal aspect; Score 1: erythema; Score 2: erythema with slight edema; Score 3: strong inflammation without ankylosis; Score 4: ankylosis. This evaluation was performed at the following times (after induction of arthritis): Day 14 (before i.v. bolus or p.o. administration); and Day 24 (5 days after the last i.v. bolus injection or 24 h after the last p.o. administration). All measurements were performed between 2:00 and 3:00 pm (D 14), 8:00 and 9:00 am (D 24). All the data were collected and stored by the WinDas software.
All results were reported as Mean ±S.E.M. of 10 rats in each group at each time point. Paw volume was expressed in ml calculated from the mean value of the right and left paw volume. Arthritis index was calculated from the sum of the score obtained for each of the 4 paws. The nociceptive response was evaluated by the intensity of the level of vocalization recorded for each animal (mean of 4 values: 2 times/paw) in mV. The percentage inhibition of the nociceptive response was calculated from the mean value of the vehicle-treated arthritic group [(mean value of vehicle-treated arthritic group−mean value of treated arthritic group/mean value of vehicle-treated arthritic group)*100]. Body weight was expressed in grams. Hindpaws (left and right) weight was expressed in grams. Cytokine levels (IL-6, IL-1β, TNF-α and TGF-β1) of each hind paw was expressed in pg/ml. Circulating levels of TGF-β1 was expressed in pg/ml. Radiological index for each parameter (demineralization, erosions, periostal reaction, soft tissue damage, space joint, osteogenesis deformity) and total radiological index (total score) were calculated from the sum of the scores obtained for each parameter. The inter-group significances of the deviations between the values of vehicle-treated group (arthritic rats) and vehicle-treated group (non arthritic rats) were assessed by the Student t test or Mann-Whitney Rank Sum Test when equal variance or normality test failed. The inter-group significances of the deviations between the values of vehicle-treated group (arthritic rats) and E3- and 911- and Indomethacin-treated groups were assessed by the 1-way analysis of variance ANOVA followed by the non-paired Dunnett t test. […]

[2] = test system: complete Freund's adjuvant (CFA)-induced chronic arthritis; test: CFA arthritis rats, X-ray analysis of hindpaws (radiological index); type: in vivo, rat; details: for X-ray score: Deformity / X-ray score: Demineralization / X-ray score: Erosions / X-ray score: Periostal reaction / X-ray score: Soft tissue damage / X-ray score: Space joint / X-ray score: osteogenesis: score 0-4
Experimental: On Day 24, after blood collecting the animals were sacrificed and X-ray radiographies (hindpaws) were obtained for assessment of joint lesions. X-ray analysis was focused on articular erosions, articular space, periosteum abnormalities on both hindpaws. All the radiographies were analyzed by looking at seven different items: the soft tissue damage, deformity, demineralization, joint space, erosions, osteogenesis and periostal reaction. For each animal, the first six items were analyzed independently by looking at the worse hind foot. The periostal reaction was analyzed by looking at the tail. For each item, the score goes from 0 (normal) to 4 (maximal damage). Therefore the total score goes from 0 to 28. The radiographic interpretation was done by the same reader without knowing anything about the animals (treated or not treated).
All results were reported as Mean ±S.E.M. of 10 rats in each group at each time point. Paw volume was expressed in ml calculated from the mean value of the right and left paw volume. Arthritis index was calculated from the sum of the score obtained for each of the 4 paws. The nociceptive response was evaluated by the intensity of the level of vocalization recorded for each animal (mean of 4 values: 2 times/paw) in mV. The percentage inhibition of the nociceptive response was calculated from the mean value of the vehicle-treated arthritic group [(mean value of vehicle-treated arthritic group−mean value of treated arthritic group/mean value of vehicle-treated arthritic group)*100]. Body weight was expressed in grams. Hindpaws (left and right) weight was expressed in grams. Cytokine levels (IL-6, IL-1β, TNF-α and TGF-β1) of each hind paw was expressed in pg/ml. Circulating levels of TGF-β1 was expressed in pg/ml. Radiological index for each parameter (demineralization, erosions, periostal reaction, soft tissue damage, space joint, osteogenesis deformity) and total radiological index (total score) were calculated from the sum of the scores obtained for each parameter. The inter-group significances of the deviations between the values of vehicle-treated group (arthritic rats) and vehicle-treated group (non arthritic rats) were assessed by the Student t test or Mann-Whitney Rank Sum Test when equal variance or normality test failed. The inter-group significances of the deviations between the values of vehicle-treated group (arthritic rats) and E3- and 911- and Indomethacin-treated groups were assessed by the 1-way analysis of variance ANOVA followed by the non-paired Dunnett t test. A probability of P<0.05 was considered as significant. All statistical analysis was performed by the Sigmastat™ software.

[3] = arthritic rats, E3 1 mg/kg or 911 10 mg/kg i.v. D14+D19, indomethacin 3 mg/kg p.o., D24

Molecule | change of arthritis index compared to vehicle-treated arthritic group ([1]; D24) | arthritis index (score) ([1]; D14 (before dosing)) | decrease of X-ray total score in comparison to vehicle-treated arthritic rats ([2]; indomethacin 3 mg/kg/day p.o. 10 days) | X-ray score: Deformity [2, 3] | X-ray score: Demineralization [2, 3] | X-ray score: Erosions [2, 3] | X-ray score: Periostal reaction [2, 3] | X-ray score: Soft tissue damage [2, 3] | X-ray score: Space joint [2, 3] | X-ray score: osteogenesis [2, 3] | anti-inflammatory effects in arthritis model (conclusion) ([1]; E3 1 mg/kg i.v., 911 10 mg/kg i.v., D14+D19) | arthritis index (score) ([1]; E3 1 mg/kg or 911 10 mg/kg i.v. D14+D19, indomethacin 3 mg/kg/day p.o. 10 days, D24) | X-ray TOTAL score ([2]; score 0-28, arthritic rats, E3 1 mg/kg or 911 10 mg/kg i.v. D14+D19, indomethacin 3 mg/kg p.o., D24)
COc1ccc2c(c1)c(CC(=O)O)c(C)n2C(=O)c1ccc(Cl)cc1 [Indomethacin, reference compound] | about −8.0 | 8.7±0.6 | about 10.7 | 0.4 ± 0.2 | 0.3 ± 0.2 | 0.9 ± 0.2 | 0.7 ± 0.3 | 1.0 ± 0.2 | 1.0 ± 0.2 | 0.1 ± 0.1 |  |  | 
B1 | did not affect the arthritis index | 10.2±0.4 |  | 1.8 ± 0.2 | 2.0 ± 0.2 | 2.4 ± 0.3 | 0.8 ± 0.2 | 3.3 ± 0.3 | 2.7 ± 0.2 | 1.2 ± 0.2 | did not show significant anti-inflammatory effects | 11.4±0.4 | 14.2±1.3

From patent US20080182978A1, “ANTI-NGF ANTIBODIES AND METHODS USING SAME” (RINAT NEUROSCIENCE CORP, priority 2002, published 2008)
